“And” between values parts separate entries of the source, which are not always exact repeats. Identical values can stand only once.
What was measured:
Bcl-xL = target: T1, Bcl-xL (Homo sapiens, UniProt Q07817); assay: LUMIER full-length protein interaction; format: binding; conditions: LUMIER results for Bcl-xL; for z-score 2.2: experiment 2, duplicate 2; for z-score 1.1: experiment 1, duplicate 1; for z-score 1.2: experiment 1, duplicate 2; for z-score 2.1: experiment 2, duplicate 1
T1 construct: myc-Bcl-xL SPOT array & FP; made in house
Protocol: (§1) The LUMIER assay was carried out as previously described with the following modifications. A stable cell line expressing receptor tagged on the N-terminus with Nanoluc luciferase was created (the prey). […] Each bait construct was transfected into the receptor-luciferase cells in a 96-well format and after 48 hours the cells were lysed and transferred to 384-well plates coated with anti-FLAG. After incubation and washing, luminescence was measured to quantify how much receptor-luciferase was captured by the bait protein. Anti-Flag ELISA signal was used to exclude bait proteins that were not expressed. The experiment was carried out two times, each in duplicate.

Mcl-1 = target: T2, Mcl-1 (Homo sapiens, UniProt Q07820); assay: LUMIER full-length protein interaction; format: binding; conditions: LUMIER results for Mcl-1, Z-score relative to Gaussian fit of the data; for z-score 2.1: experiment 2, duplicate 1; for z-score 2.2: experiment 2, duplicate 2; for z-score 1.2: experiment 1, duplicate 2
T2 construct: myc-Mcl-1 SPOT array & FP; made in house
Protocol: as §1

[1] = Z-score relative to Gaussian fit of the data
[2] = Z-score of the interaction relative to the Gaussian fit of the data

T1 sequence (Q07817 with tags, fused parts or gaps): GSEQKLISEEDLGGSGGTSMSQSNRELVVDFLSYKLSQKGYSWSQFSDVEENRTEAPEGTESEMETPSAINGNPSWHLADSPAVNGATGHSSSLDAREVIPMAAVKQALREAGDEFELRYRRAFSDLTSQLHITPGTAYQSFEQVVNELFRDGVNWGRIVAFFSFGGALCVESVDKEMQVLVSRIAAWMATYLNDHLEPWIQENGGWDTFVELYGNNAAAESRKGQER
T2 sequence (Q07820 with tags, fused parts or gaps): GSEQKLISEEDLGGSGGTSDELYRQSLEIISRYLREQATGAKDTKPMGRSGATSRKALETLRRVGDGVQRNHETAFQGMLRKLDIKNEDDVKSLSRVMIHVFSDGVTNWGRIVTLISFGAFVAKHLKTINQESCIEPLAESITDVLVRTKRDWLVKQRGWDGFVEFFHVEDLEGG

Substance | z-score 2.2 (Bcl-xL; [1]) | z-score 2.1 (Mcl-1) | z-score 2.2 (Mcl-1) | z-score 1.1 (Bcl-xL; [1]) | z-score 1.2 (Bcl-xL; [1]) | z-score 2.1 (Bcl-xL; [1]) | z-score 1.2 (Mcl-1) | z-score 1.1 (Bcl-xL; [2]) | z-score 1.2 (Bcl-xL; [2]) | z-score 2.1 (Bcl-xL; [2]) | z-score 2.2 (Bcl-xL; [2])
ISOC1 (AGYELLIQKFLSLYGDQIDMHRKFVV) | 0.4271 and 0.3646 | 1.04 and 0.6675 | 0.5198 and 0.4144 | – | – | – | – | – | – | – | –
MAPT | – | – | 0.6441 | 0.3413 | 1.938 | 0.8331 | 0.1627 | – | – | – | –
CCDC57 (QAGPVSSGLALRKLGDRVQLLNLLVT) | – | 1.282 | 1.811 | – | – | – | 0.8015 | 2.807 | 1.916 | 0.2364 | 0.8316
CYP2A6 (MPYMEAVIHEIQRFGDVIPMSLARRV) | -0.592 | -0.8736 | -1.0005 | -0.01422 | -0.04633 | -0.5606 | -0.6263 | – | – | – | –
PRKD3 (IQENVDISTVYQIFADEVLGSGQFGI) | – | 3.751 | 3.546 | – | – | – | 0.6899 | 6.764 | -0.4537 | 1.665 | 5.133
PPAT (RLRQLGVAKKFGVLSDNFKGKRIVLV) | -0.4829 | -0.6136 | -0.9152 | -0.3811 | 0.4308 | -0.2564 | 0.1831 | – | – | – | –
RBL1 (WTLFVYTKGNFRMIGDDLVNSYHLLL) | 1.895 | 1.744 | 0.6936 | 5.112 | – | 2.327 | 0.3355 | – | – | – | –
FUT8 (KKLKNLEGNELQRHADEFLLDLGHHE) | -0.644 | -0.1664 | -0.7985 | -1.728 | -2.609 | 2.234 | -0.4768 | – | – | – | –
PCNXL2 (LLDFFMVSILFSKLGDLLHKLQFVLT) | 1.005 | 0.4915 | -0.3857 | -0.7258 | 0.8817 | 0.72 | -1.056 | – | – | – | –
BAK1 (SSTMGQVGRQLAIIGDDINRRYDSEF) | – | 5.961 | 6.848 | – | – | – | 6.48 | 0.8883 | 2.921 | 1.064 | 1.82
CTSL2 (SQGKHGFTMAMNAFGDMTNEEFRQMM) | – | 0.02916 | -0.562 | -0.437 | -1.625 | 0.4619 | -0.01526 | – | – | – | –
HEXDC (VLELHPGAQRLHIGCDEVYYLGEGEA) | -0.8049 | -1.0129 | -1.44 | -0.9348 | -0.7792 | -0.04647 | -0.6103 | – | – | – | –
SMPD2 (PYLSKHRADRMRRLGDFLNQESFDLA) | 2.724 | -0.5316 | -0.9514 | -0.2083 | 2.876 | -0.2736 | -0.1967 | – | – | – | –
FBXW5 (LTETSLISGNLHRIGDITSCSVLWLN) | – | – | – | – | – | 1.152 and 2.217 | – | – | – | – | –

Now from value to substance:

z-score 2.2 (Bcl-xL; [1]) | z-score 2.1 (Mcl-1) | z-score 2.2 (Mcl-1) | z-score 1.1 (Bcl-xL; [1]) | z-score 1.2 (Bcl-xL; [1]) | z-score 2.1 (Bcl-xL; [1]) | z-score 1.2 (Mcl-1) | z-score 1.1 (Bcl-xL; [2]) | z-score 1.2 (Bcl-xL; [2]) | z-score 2.1 (Bcl-xL; [2]) | z-score 2.2 (Bcl-xL; [2]) | Substance
3.656 | 2.02 | 1.79 | 1.001 | -1.268 | 4.4 | 0.3257 | – | – | – | – | NOL8 (KYDPSKYCHNLKKIGEDFSNTIPISS)
1.097 | 1.579 | 0.3173 | 5.589 | 0.08513 | 1.44 | 0.1736 | – | – | – | – | DHX30 (PVESSWIAPELRLQSDDILPLGKDSG)
0.03743 | 0.005652 | 1.343 | -0.79 | -2.494 | 0.3656 | 1.162 | – | – | – | – | NRN1L (DTIYQGFAECLIRLGDSMGRGGELET)
– | 0.4209 | 0.563 | – | – | – | 0.5442 | 4.105 | 0.5337 | -0.08078 | 0.3897 | WDR60 (GGRVKLVHSALIQLGDSLSHKGNEFW)
0.07051 | 0.04852 | -0.477 | 1.122 | 0.5458 | 0.3748 | 1.007 | – | – | – | – | SGCA (LFWTPLLVVLLAGLGDTEAQQTTLHP)
-0.7989 | -0.1664 | -0.3437 | 0.2486 | -0.6775 | 0.2039 | -0.04596 | – | – | – | – | P2RX7 (QCPIFRLGDIFRETGDNFSDVAIQGG)
2.046 | -0.03415 | -0.3116 | 0.6815 | – | 3.9688 | 0.6268 | – | – | – | – | SIPA1 (TAGLRPGARLLRVCGQTLPSLRPEAA)
-0.2 | 0.2302 | -0.2533 | 3.909 | -0.1665 | 0.7598 | -0.7174 | – | – | – | – | TAP1 (MSILTIASAVLEFVGDGIYNNTMGHV)
-0.6661 | -0.8677 | -1.447 | 0.3673 | -1.779 | 0.009756 | 0.6104 | – | – | – | – | CYBB (APEEDFFSIHIRIVGDWTEGLFNACG)
1.668 | 0.7051 | 0.9311 | -0.9043 | 0.9292 | 0.4444 | 0.7633 | – | – | – | – | PRCP (DDMFEPHSWNLKELSDDCFQQWGVRP)
-0.5885 | 0.001659 | -1.314 | 0.7648 | -1.829 | – | -0.5001 | – | – | – | – | EXOC4 (MQTLSELAKSFQDMADRCLLVLHLEV)
0.6709 | 1.802 | 1.866 | 8.932 | -0.8907 | 0.7008 | 1.584 | – | – | – | – | IPO5 (SEIMHSFAKCIEVMGDGCLNNEHFEE)
– | 11.6048 | 12.4336 | – | – | – | 9.774 | – | – | – | – | BCL2L11 (MRPEIWIAQELRRIGDEFNAYYARRV)
0.4568 | -0.5416 | -0.2181 | 0.5842 | 0.512 | 0.1189 | -0.2499 | – | – | – | – | TTC31 (DLSSTFVSLALRKVGDWPLSARREKG)
0.6909 | 0.7867 | – | -1.0584 | -0.5034 | 0.7016 | 0.7662 | – | – | – | – | FADD (APGEEDLCAAFNVICDNVGKDWRRLA)
